Laboratory results published in US20150210756A1 (NEW YORK UNIVERSITY, published 2015).
Changes are numbered by the printed parent chain.

B1: Luk47 (designed binder)
chain: LPAPKNLVVSRVTEDSARLSWTAPDAAFDSFGIQYFETTESGEAIVLTVPGSERSYDLTGLKPGTEYVVFISGVKGGPLSWPLSAIFTT
notes: not shown: C-terminal poly-histidine tag
B2: Luk53 (designed binder)
chain: B1 chain with G32T, T38A, T39E, E40A, S41N, V68L, S72V, P78H, L79S, W81L
notes: as for B1
B3: Luk52 (designed binder)
chain: B1 chain with G32W, F36G, T38A, T39Q, S41F, V68I, S72T, P78N, L79K, W81Y
notes: as for B1
B4: Luk51 (designed binder)
chain: B1 chain with G32Q, Q34H, T38S, T39E, E40P, S41G, S72I, P78W, L79S, W81L
notes: as for B1
B5: Luk55 (designed binder)
chain: B1 chain with G32W, T38S, T39A, E40G, S41E, V68L, S72V, P78V, L79P, W81Y
notes: as for B1
B6: Luk29 (designed binder)
chain: LPAPKNLVVSRVTEDSARLSWDEQFVSNFDSFLIQYQESEKVGEAIVLTVPGSERSYDLTGLKPGTEYTVSIYGVFVPWDGFSEINYSNPLSAIFTT
notes: as for B1
B7: Luk46 (designed binder)
chain: LPAPKNLVVSRVTEDSARLSWTAPDAAFDSFWIHYEESTWAGEAIVLTVPGSERSYDLTGLKPGTEYGVVIVGVKGGLKSHPLSAIFTT
notes: as for B1
B8: Luk37 (designed binder)
chain: LPAPKNLVVSRVTEDSARLSWTAPDAAFDSFLIQYQESEKVGEAIVLTVPGSERSYDLTGLKPGTEYTVSIYGVVGWPLFIQSNPLSAIFTT
notes: as for B1
B9: Luk41 (designed binder)
chain: LPAPKNLVVSRVTEDSARLSWTAPDAAFDSFLIQYQESEKVGEAIVLTVPGSERSYDLTGLKPGTEYTVSIYGVSEVPYSEYWFSNPLSAIFTT
notes: as for B1
B10: Luk42 (designed binder)
chain: B9 chain with S75V, E76W, V77G, P78Y, Y79R, S80L, E81T, Y82T, W83E, F84H
notes: as for B1
B11: Luk56 (designed binder)
chain: LPAPKNLVVSRVTEDSARLSWTAPDAAFDSFYIQYIELEIGEAIVLTVPGSERSYDLTGLKPGTEYGVFISGVKGGWNSYPLSAIFTT
notes: as for B1
B12: Luk49 (designed binder)
chain: LPAPKNLVVSRVTEDSARLSWTAPDAAFDSFAIVYAEHWPAGEAIVLTVPGSERSYDLTGLKPGTEYNVTIPGVKGGKYSDPLSAIFTT
notes: as for B1
B13: Luk31 (designed binder)
chain: LPAPNNLVVSRVTEDSARLSWDWDKYYTNRFDSFLIQYQESEKVGEAIVLTVPGSERSYDLTGLKPGTEYTVSIYGVLVRDYIRAAEWYSNPLSAIFTT
notes: as for B1
B14: Luk27 (designed binder)
chain: LPAPKNLVVSRVTEDSARLSWTAPDAAFDSFPIVYQEWQFYGEAIVLTVPGSERSYDLTGLKPGTEYLVDIYGVKGGSWSYPLSAIFTT
notes: also called anti-LukE FN3 domain Luk27; not shown: C-terminal poly-histidine tag
B15: Luk60 (designed binder)
chain: LPAPKNLVVSRVTEDSARLSWTAPDAAFDSFDIQYWEWWPFGEAIVLTVPGSERSYDLTGLKPGTEYGVIILGVKGGFRSTPLSAIFTT
notes: as for B1
B16: Luk54 (designed binder)
chain: B15 chain with A27V, D32R, Q34E, W36S, F41I, I70V, L72A, F78G, R79Y, T81V
notes: as for B1
B17: Luk57 (designed binder)
chain: B15 chain with D29N, D32Y, Q34E, W36F, W39F, F41A, G68A, L72H, F78Q
notes: as for B1
B18: Luk48 (designed binder)
chain: B15 chain with D32H, Q34E, W36G, F41T, I70L, L72V, T81S
notes: as for B1
B19: Luk50 (designed binder)
chain: B15 chain with D32V, Q34P, W36S, F41V, I70Y, L72V, F78T, R79W, T81A
notes: as for B1
B20: Luk28 (designed binder)
chain: B15 chain with D32A, F41P, F78W, R79Y, T81N
notes: as for B1
B21: Luk30 (designed binder)
chain: LPAPKNLVVSRVTEDSARLSWAFNWNYFAFDSFLIQYQESEKVGEAIVLTVPGSERSYDLTGLKPGTEYTVSIYGVVALNTGNKKSNPLSAIFTT
notes: as for B1
B22: Luk26 (designed binder)
chain: LPAPKNLVVSRVTEDSARLSWTAPDAAFDSFHIEYAEPWVWGEAIVLTVPGSERSYDLTGLKPGTEYVVFIGGVKGGHNSTPLSAIFTT
notes: also called anti-LukE FN3 domain Luk26; not shown: C-terminal poly-histidine tag
B23: Luk43 (designed binder)
chain: LPAPKNLVVSRVTEDSARLSWTAPDAAFDSFLIQYQESEKVGEAIVLTVPGSERSYDLTGLKPGTEYTVSIYGVNSFGRPTLNLFSNPLSAIFTT
notes: as for B1
B24: Luk44 (designed binder)
chain: B23 chain with N75E, S76W, F77L, G78Q, R79Y, P80Y, T81G, L82E, N83T
notes: as for B1
B25: Luk40 (designed binder)
chain: B23 chain with N75S, S76Y, F77A, R79E, T81L, N83W, L84I, F85Y
notes: as for B1
B26: Luk45 (designed binder)
chain: B23 chain with N75A, S76W, F77L, G78T, R79N, P80A, T81Y, L82E, N83W, L84E
notes: as for B1
B27: Luk38 (designed binder)
chain: LPAPKNLVVSRVTEDSARLSWTAPDAAFDSFLIQYQESEKVGEAIVLTVPGSERSYDLTGLKPGTEYTVSIYGVELIYHGWLDFVFSNPLSAIFTT
notes: also called anti-LukE FN3 domain Luk38; not shown: C-terminal poly-histidine tag
B28: Luk39 (designed binder)
chain: B27 chain with E75R, L76V, I77F, H79F, G80S, W81V, L82E, D83P, F84T, V85W
notes: as for B1
B29: Luk33 (designed binder)
chain: LPAPKNLVVSRVTEDSARLSWTAPDAAFDSFLIQYQESEKVGEAIVLTVPGSERSYDLTGLKPGTEYTVSIYGVAFIPDEIEFSNPLSAIFTT
notes: as for B1
B30: Luk36 (designed binder)
chain: B29 chain with F76D, I77V, I81Y
notes: as for B1
B31: Luk35 (designed binder)
chain: B29 chain with F76H, D79W, I81F, F83W, N85K
notes: as for B1
B32: Luk34 (designed binder)
chain: B29 chain with L61P, A75V, F76V, I77V, D79H, I81F
notes: as for B1
B33: Luk32 (designed binder)
chain: LPAPKNLVVSRVTEDSARLSWYHENAYLLFDSFLIQYQESEKVGEAIVLTVPGSERSYDLTGLKPGTEYTVSIYGVVYDLTPEKRSSNPLSAIFTT
notes: as for B1

Each binder was assayed against T1, LukE (S. aureus, UniProt Q2FXB0 24-306) (assay: ELISA after cis-display panning).
T1 construct: also called leukotoxin E
B1: binds.
B2: binds.
B3: binds.
B4: binds.
B5: binds.
B6: binds.
B7: binds.
B8: binds.
B9: binds.
B10: binds.
B11: binds.
B12: binds.
B13: binds.
B14: binds.
B15: binds.
B16: binds.
B17: binds.
B18: binds.
B19: binds.
B20: binds.
B21: binds.
B22: binds.
B23: binds.
B24: binds.
B25: binds.
B26: binds.
B27: binds.
B28: binds.
B29: binds.
B30: binds.
B31: binds.
B32: binds.
B33: binds.
